Measurements from patent publication US5854388A, “Angiotensin IV peptides and receptor” (Washington State University Research Foundation, priority 1994, dated 1998).

Key:
AT4 receptor [1] = target: T1, AT4 receptor (Oryctolagus cuniculus, UniProt G1SFU4); assay: 125I-AIV binding and competition, rabbit heart P2 membranes; conditions: competition of 0.5 nM 125I-AIV, 120 min, 37° C.
T1 sequence (G1SFU4 1-1025): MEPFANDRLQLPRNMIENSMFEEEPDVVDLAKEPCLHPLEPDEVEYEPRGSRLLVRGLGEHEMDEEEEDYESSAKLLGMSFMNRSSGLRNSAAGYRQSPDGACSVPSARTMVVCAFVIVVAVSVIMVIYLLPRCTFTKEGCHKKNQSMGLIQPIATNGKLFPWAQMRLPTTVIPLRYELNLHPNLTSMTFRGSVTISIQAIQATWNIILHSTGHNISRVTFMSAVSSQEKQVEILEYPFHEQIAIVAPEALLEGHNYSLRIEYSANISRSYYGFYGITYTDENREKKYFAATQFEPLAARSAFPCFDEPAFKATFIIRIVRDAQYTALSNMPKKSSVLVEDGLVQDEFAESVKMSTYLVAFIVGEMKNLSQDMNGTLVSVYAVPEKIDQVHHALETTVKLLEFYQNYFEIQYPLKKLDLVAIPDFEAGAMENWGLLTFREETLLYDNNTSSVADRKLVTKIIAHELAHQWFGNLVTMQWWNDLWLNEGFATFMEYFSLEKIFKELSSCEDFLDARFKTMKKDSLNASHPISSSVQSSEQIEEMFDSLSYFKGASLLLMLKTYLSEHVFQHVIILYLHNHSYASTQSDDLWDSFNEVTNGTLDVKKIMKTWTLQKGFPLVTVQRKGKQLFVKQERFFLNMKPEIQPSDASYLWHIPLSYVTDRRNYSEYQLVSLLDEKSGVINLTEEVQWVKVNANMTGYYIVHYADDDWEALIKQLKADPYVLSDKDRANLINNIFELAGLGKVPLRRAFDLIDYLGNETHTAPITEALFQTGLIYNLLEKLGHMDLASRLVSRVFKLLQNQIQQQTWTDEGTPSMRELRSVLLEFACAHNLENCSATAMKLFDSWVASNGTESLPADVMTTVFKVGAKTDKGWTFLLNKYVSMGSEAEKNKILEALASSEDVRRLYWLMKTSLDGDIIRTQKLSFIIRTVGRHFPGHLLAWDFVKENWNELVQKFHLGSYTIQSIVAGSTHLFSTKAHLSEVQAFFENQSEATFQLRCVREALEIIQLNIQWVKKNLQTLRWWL

rat kidney = assay: Renal cortical blood flow (laser doppler) and arterial pressure after infusion into the renal artery; type: in vivo; conditions: infusion into renal artery
AT4 receptor [2] = target: T2, AT4 receptor (Bos taurus, UniProt F1N1Q8); assay: 125I-AIV binding and competition, bovine adrenal cortical membranes; conditions: read-out: 125I-AIV Binding (Ki); competition
T2 sequence (F1N1Q8 1-1022): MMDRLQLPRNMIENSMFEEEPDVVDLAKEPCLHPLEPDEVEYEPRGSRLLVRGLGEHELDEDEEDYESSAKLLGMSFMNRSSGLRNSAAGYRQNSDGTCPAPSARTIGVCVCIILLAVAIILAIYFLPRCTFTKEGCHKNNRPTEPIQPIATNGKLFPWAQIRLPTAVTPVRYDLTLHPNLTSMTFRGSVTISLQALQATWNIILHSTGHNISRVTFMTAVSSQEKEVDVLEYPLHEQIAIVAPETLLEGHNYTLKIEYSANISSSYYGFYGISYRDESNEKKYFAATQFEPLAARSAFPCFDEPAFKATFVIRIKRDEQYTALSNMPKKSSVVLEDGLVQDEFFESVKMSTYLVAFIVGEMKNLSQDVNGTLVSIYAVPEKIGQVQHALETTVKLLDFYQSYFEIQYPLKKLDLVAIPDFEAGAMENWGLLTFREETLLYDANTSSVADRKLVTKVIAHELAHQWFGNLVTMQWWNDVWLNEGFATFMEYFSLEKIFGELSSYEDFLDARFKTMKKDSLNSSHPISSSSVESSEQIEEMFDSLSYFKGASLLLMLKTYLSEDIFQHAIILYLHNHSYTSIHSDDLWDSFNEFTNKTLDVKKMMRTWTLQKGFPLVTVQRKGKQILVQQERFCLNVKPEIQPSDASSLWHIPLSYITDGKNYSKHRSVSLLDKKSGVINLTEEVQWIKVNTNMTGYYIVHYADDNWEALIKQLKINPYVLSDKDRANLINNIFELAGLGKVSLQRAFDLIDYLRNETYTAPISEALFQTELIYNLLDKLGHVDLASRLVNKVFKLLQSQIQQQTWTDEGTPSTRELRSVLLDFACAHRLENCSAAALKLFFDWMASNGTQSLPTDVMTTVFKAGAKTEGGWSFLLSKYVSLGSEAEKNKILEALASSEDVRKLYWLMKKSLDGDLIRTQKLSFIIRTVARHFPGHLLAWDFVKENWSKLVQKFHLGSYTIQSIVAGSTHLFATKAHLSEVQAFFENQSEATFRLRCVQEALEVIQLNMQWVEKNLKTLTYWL

AT4 receptor [3] = target: T2, AT4 receptor; assay: 125I-AIV binding and competition, coronary venular endothelial cell (CVEC) membranes; set-up: species or system bovine; conditions: competition of 0.5 nM 125I-AIV; read-out: Ki
rats = assay: Passive avoidance conditioning after icv injection; type: in vivo, rat
[4] = in vivo; cited from earlier work
[5] = target: T3, AT1 receptor (AII receptor) (Bos taurus, UniProt P25104); type: binding, bovine; conditions: 37° C., 2 h, HPLC
T3 construct: from tissue; host or cells: bovine adrenal cortex membranes
T3 sequence (P25104 1-359): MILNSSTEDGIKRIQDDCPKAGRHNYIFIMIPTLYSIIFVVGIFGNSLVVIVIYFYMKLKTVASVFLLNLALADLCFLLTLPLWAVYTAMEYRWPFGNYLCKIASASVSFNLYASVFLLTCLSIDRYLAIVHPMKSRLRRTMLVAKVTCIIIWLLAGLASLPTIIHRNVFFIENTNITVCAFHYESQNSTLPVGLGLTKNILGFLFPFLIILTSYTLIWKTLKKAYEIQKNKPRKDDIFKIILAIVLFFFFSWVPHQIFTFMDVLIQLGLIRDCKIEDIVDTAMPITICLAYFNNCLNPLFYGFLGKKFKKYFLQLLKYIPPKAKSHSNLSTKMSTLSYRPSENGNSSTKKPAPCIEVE

## Asp1 Arg2 Val3 Tyr4 Ile5 His6 Pro7 Phe8 (DRVYIHPF) [AII]
AT4 receptor [1]
  Ki: > 1000 nM
Rat kidney
  effect on renal blood flow (in words): dramatic decrease in renal blood flow
AT4 receptor [2]
  Ki: > 1000 nM
AT4 receptor [3]
  Ki: 194 ± 44.5 nM
rats
  passive avoidance latency / cognitive effect (in words): no specific effect
[4]
  metabolized during transit through the kidney: 72-76%
[5]
  overall hydrolysis under conditions of the assay: less than 2%
